Measured values published in publication PMC4422687.

Molecular target: soluble HA-tagged canine SLAM (UniProt Q95MM9)
Details: parent: est. 100; read off a plot

In the case of “CDV H-wt, full length attachment protein (hemagglutinin) H of canine distemper virus strain A75/17, FLAG-tagged R129A”, the percent of parent is reported as 110 % to control.
For “CDV H-wt, full length attachment protein (hemagglutinin) H of canine distemper virus strain A75/17, FLAG-tagged W138A”, the percent of parent was 98 % to control.
For “CDV H-wt, full length attachment protein (hemagglutinin) H of canine distemper virus strain A75/17, FLAG-tagged F133A”, the percent of parent was 160 % to control.
“CDV H-wt, full length attachment protein (hemagglutinin) H of canine distemper virus strain A75/17, FLAG-tagged F131A” was tested, and the percent of parent was 93 % to control.
“CDV H-wt, full length attachment protein (hemagglutinin) H of canine distemper virus strain A75/17, FLAG-tagged L136A” was tested, and the percent of parent was 70 % to control.
With “CDV H-wt, full length attachment protein (hemagglutinin) H of canine distemper virus strain A75/17, FLAG-tagged E130A” the percent of parent was 54 % to control.
“CDV H-wt, full length attachment protein (hemagglutinin) H of canine distemper virus strain A75/17, FLAG-tagged H137A” was tested, and the percent of parent was 86 % to control.
For “CDV H-wt, full length attachment protein (hemagglutinin) H of canine distemper virus strain A75/17, FLAG-tagged R134A”, the percent of parent was 110 % to control.
With “CDV H-wt, full length attachment protein (hemagglutinin) H of canine distemper virus strain A75/17, FLAG-tagged D135A” the percent of parent was 130 % to control.
“CDV H-wt, full length attachment protein (hemagglutinin) H of canine distemper virus strain A75/17, FLAG-tagged P127A” was tested, and the percent of parent was 61 % to control.
For “CDV H-wt, full length attachment protein (hemagglutinin) H of canine distemper virus strain A75/17, FLAG-tagged D132A”, the percent of parent was 98 % to control.
In the case of “CDV H-wt, full length attachment protein (hemagglutinin) H of canine distemper virus strain A75/17, FLAG-tagged N128A”, the percent of parent is reported as 84 % to control.
With “CDV H-wt, full length attachment protein (hemagglutinin) H of canine distemper virus strain A75/17, FLAG-tagged N126A” the percent of parent was 94 % to control.
